Test results published in article doi:10.1101/2021.10.12.462922 (bioRxiv, 2021).
Where two headings read alike, the source gives them in different places.

T1: PHF14 (human, UniProt O94880 1-948)
T1 sequence: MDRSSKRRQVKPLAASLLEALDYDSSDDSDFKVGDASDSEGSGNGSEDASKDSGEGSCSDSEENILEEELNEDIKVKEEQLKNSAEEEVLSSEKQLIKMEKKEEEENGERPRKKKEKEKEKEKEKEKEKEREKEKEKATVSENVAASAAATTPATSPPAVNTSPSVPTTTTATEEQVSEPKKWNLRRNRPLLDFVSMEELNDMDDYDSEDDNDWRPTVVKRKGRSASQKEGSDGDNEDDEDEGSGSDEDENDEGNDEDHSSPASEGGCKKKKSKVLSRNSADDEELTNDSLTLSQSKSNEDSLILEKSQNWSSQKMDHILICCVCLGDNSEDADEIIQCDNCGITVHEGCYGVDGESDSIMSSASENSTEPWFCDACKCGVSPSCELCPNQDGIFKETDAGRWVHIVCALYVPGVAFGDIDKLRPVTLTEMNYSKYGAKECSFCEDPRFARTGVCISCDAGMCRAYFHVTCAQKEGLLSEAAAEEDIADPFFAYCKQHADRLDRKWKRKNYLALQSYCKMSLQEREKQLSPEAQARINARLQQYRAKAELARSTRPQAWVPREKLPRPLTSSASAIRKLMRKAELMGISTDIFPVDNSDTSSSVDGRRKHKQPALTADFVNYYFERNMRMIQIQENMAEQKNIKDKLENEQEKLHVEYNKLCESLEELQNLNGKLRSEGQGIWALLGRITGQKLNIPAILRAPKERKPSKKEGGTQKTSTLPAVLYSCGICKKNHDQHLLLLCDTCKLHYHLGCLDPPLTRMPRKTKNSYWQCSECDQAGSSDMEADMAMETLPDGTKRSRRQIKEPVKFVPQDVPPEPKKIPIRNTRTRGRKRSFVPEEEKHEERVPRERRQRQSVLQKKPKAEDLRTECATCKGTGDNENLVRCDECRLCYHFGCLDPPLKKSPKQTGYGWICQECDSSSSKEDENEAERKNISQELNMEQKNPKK

T2: HMG20A, human, recombinant from insect cells (human, UniProt Q9NP66 1-347)
T2 sequence: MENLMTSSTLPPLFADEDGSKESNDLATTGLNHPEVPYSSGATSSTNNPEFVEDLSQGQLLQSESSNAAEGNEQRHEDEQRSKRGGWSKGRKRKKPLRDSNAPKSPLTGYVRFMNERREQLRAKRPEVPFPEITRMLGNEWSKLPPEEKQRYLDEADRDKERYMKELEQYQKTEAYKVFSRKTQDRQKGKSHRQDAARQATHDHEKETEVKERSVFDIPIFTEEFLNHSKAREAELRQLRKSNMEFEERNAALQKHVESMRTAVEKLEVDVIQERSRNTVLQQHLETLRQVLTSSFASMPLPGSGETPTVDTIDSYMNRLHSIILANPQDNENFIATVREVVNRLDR

B1: dsDNA (dsDNA)
DNA 1: CCCTATAACCCCTGCATTGAATTCCAGTCTGATAA
DNA 2: TTTATCAGACTGGAATTCAATGCAGGGGTTATAGGG
B2: 4WJ (four-way junction, Holliday junction) (structured_DNA)
DNA 1: B1 DNA 1
DNA 2: GTAGTCGTGATAGGTGCAGGGGTTATAGGG
DNA 3: AACAGTAGCTCTTATTCGAGCTCGCGCCCTATCACGACTA
DNA 4: TTTATCAGACTGGAATTCAAGCGCGAGCTCGAATAAGAGCTACTGT
B3: TCF20 (transcription factor 20), human, recombinant from insect cells (natural protein)
chain: MQSFREQSSYHGNQQSYPQEVHGSSRLEEFSPRQAQMFQNFGGTGGSSGSSGSGSGGGRRGAAAAAAAMASETSGHQGYQGFRKEAGDFYYMAGNKDPVTTGTPQPPQRRPSGPVQSYGPPQGSSFGNQYGSEGHVGQFQAQHSGLGGVSHYQQDYTGPFSPGSAQYQQQASSQQQQQQVQQLRQQLYQSHQPLPQATGQPASSSSHLQPMQRPSTLPSSAAGYQLRVGQFGQHYQSSASSSSSSSFPSPQRFSQSGQSYDGSYNVNAGSQYEGHNVGSNAQAYGTQSNYSYQPQSMKNFEQAKIPQGTQQGQQQQQPQQQQHPSQHVMQYTNAATKLPLQSQVGQYNQPEVPVRSPMQFHQNFSPISNPSPAASVVQSPSCSSTPSPLMQTGENLQCGQGSVPMGSRNRILQLMPQLSPTPSMMPSPNSHAAGFKGFGLEGVPEKRLTDPGLSSLSALSTQVANLPNTVQHMLLSDALTPQKKTSKRPSSSKKADSCTNSEGSSQPEEQLKSPMAESLDGGCSSSSEDQGERVRQLSGQSTSSDTTYKGGASEKAGSSPAQGAQNEPPRLNASPAAREEATSPGAKDMPLSSDGNPKVNEKTVGVIVSREAMTGRVEKPGGQDKGSQEDDPAATQRPPSNGGAKETSHASLPQPEPPGGGGSKGNKNGDNNSNHNGEGNGQSGHSAAGPGFTSRTEPSKSPGSLRYSYKDSFGSAVPRNVSGFPQYPTGQEKGDFTGHGERKGRNEKFPSLLQEVLQGYHHHPDRRYSRSTQEHQGMAGSLEGTTRPNVLVSQTNELASRGLLNKSIGSLLENPHWGPWERKSSSTAPEMKQINLTDYPIPRKFEIEPQSSAHEPGGSLSERRSVICDISPLRQIVRDPGAHSLGHMSADTRIGRNDRLNPTLSQSVILPGGLVSMETKLKSQSGQIKEEDFEQSKSQASFNNKKSGDHCHPPSIKHESYRGNASPGAATHDSLSDYGPQDSRPTPMRRVPGRVGGREGMRGRSPSQYHDFAEKLKMSPGRSRGPGGDPHHMNPHMTFSERANRSSLHTPFSPNSETLASAYHANTRAHAYGDPNAGLNSQLHYKRQMYQQQPEEYKDWSSGSAQGVIAAAQHRQEGPRKSPRQQQFLDRVRSPLKNDKDGMMYGPPVGTYHDPSAQEAGRCLMSSDGLPNKGMELKHGSQKLQESCWDLSRQTSPAKSSGPPGMSSQKRYGPPHETDGHGLAEATQSSKPGSVMLRLPGQEDHSSQNPLIMRRRVRSFISPIPSKRQSQDVKNSSTEDKGRLLHSSKEGADKAFNSYAHLSHSQDIKSIPKRDSSKDLPSPDSRNCPAVTLTSPAKTKILPPRKGRGLKLEAIVQKITSPNIRRSASSNSAEAGGDTVTLDDILSLKSGPPEGGSVAVQDADIEKRKGEVASDLVSPANQELHVEKPLPRSSEEWRGSVDDKVKTETHAETVTAGKEPPGAMTSTTSQKPGSNQGRPDGSLGGTAPLIFPDSKNVPPVGILAPEANPKAEEKENDTVTISPKQEGFPPKGYFPSGKKKGRPIGSVNKQKKQQQPPPPPPQPPQIPEGSADGEPKPKKQRQRRERRKPGAQPRKRKTKQAVPIVEPQEPEIKLKYATQPLDKTDAKNKSFYPYIHVVNKCELGAVCTIINAEEEEQTKLVRGRKGQRSLTPPPSSTESKALPASSFMLQGPVVTESSVMGHLVCCLCGKWASYRNMGDLFGPFYPQDYAATLPKNPPPKRATEMQSKVKVRHKSASNGSKTDTEEEEEQQQQQKEQRSLAAHPRFKRRHRSEDCGGGPRSLSRGLPCKKAATEGSSEKTVLDSKPSVPTTSEGGPELELQIPELPLDSNEFWVHEGCILWANGIYLVCGRLYGLQEALEIAREMKCSHCQEAGATLGCYNKGCSFRYHYPCAIDADCLLHEENFSVRCPKHKPPLPCPLPPLQNKTAKGSLSTEQSERG

What was measured:
PHF14;HMG20A = PHF14;HMG20A (human;human, UniProt O94880;Q9NP66 1-948;1-347, |); assay: EMSA
PHF14;HMG20A;TCF20 = PHF14;HMG20A;TCF20 (human;human;human, UniProt O94880;Q9NP66;Q9UGU0 1-948;1-347;1-1960, ||); assay: EMSA
HMG20A [1] = molecular target: T3, HMG20A (human, UniProt Q9NP66 1-347); assay: EMSA
PHF14 = molecular target: T1, PHF14; assay: EMSA
HMG20A [2] = molecular target: T3, HMG20A; assay: EMSA; remark: listed apart in the source
[3] = molecular target: PHF14 (PHD finger protein 14), human, recombinant from insect cells (human) (UniProt O94880); assay: native gel or EMSA
[4] = molecular target: T2, HMG20A, human, recombinant from insect …; assay: native gel or EMSA

Binder	binding result (PHF14;HMG20A)	binding result (PHF14;HMG20A;TCF20)	binding result (HMG20A [1])	binding result (PHF14)	binding result (HMG20A [2])	stoichiometry N [3]	stoichiometry N [4]
B1	binds	binds	binds	–	–	–	–
B2	binds	binds	–	no binding	binds	–	–
B3	–	–	–	–	–	0.5	0.5
